These results are taken from patent US20160243226A1.

For test [1], the target named is CD20 (human) (UniProt P11836). Put plainly: cell-based or functional assay.
The target of test [2] is CD74 (human) (UniProt P04233). The test can be described thus: cell-based or functional assay.

Some results are limits rather than exact numbers.

Chain of CD20 (human) (P11836 whole entry): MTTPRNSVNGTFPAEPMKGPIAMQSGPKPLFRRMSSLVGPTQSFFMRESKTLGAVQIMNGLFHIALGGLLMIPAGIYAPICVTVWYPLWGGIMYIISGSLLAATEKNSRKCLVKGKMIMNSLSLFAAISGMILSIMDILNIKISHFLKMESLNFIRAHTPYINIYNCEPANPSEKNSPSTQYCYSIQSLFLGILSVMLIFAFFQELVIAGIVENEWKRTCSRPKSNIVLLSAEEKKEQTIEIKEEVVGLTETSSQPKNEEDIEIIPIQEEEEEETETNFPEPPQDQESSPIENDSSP
Chain of CD74 (human) (P04233 whole entry): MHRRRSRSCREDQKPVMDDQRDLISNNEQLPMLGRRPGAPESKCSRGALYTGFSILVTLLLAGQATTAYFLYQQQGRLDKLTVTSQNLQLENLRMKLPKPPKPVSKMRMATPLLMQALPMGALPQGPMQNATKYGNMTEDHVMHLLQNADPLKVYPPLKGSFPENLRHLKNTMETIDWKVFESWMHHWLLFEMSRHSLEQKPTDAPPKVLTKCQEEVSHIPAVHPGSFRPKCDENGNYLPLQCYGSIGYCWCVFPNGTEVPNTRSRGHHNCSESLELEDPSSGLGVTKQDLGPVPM

In the case of 20-Rap, in test [1], the EC50, in vitro cytotoxicity, Daudi and Ramos amounted to 0.1 nM; the EC50, in vitro cytotoxicity, Jeko-1 is 0.02 nM.
As for Hex-hA20 (antibody), in test [1], the EC50 (nM), MTS assay, Daudi came out at 5.8 nM; the EC50 (nM), MTS assay, Granta-519 is 0.2 nM; the EC50 (nM), MTS assay, Mino is 3.4 nM; the EC50 (nM), MTS assay, Raji was found to be 8 nM.
With 74-(74)-(74) (antibody), the EC50 (nM), MTS assay, JeKo-1 in test [2] was above 100 nM.
